Assay results as given in US20200277382A1 (TUFTS MEDICAL CENTER, published 2020).

Target: T1, integrin α5 (obligate heterodimer α5β1) (human, UniProt P08648 42-1049; P05556 21-798)
T1 construct: whole, on cells; on the cells α5 stands as α5β1; also called alpha 5; ITGA5
Test: flow cytometry on a panel of cell lines with variable integrin α5 and alpha-V expression
Description: Flow Cytometry: Cells with variable membrane integrin α5 and alpha-V expression were incubated with monoclonal α5 or alpha-V antibodies (Millipore MAB1956Z and MABT207), the bispecific antibody construct ITGA5B1xAV, or isotype control, for 1 hour at room temperature followed by 1 hour of incubation with a secondary-conjugated antibody, before being analyzed by flow cytometry.
Statistics: The mean fluorescent intensities (MFI) for the α5, alpha-V, and bispecific ITGA5B1xAV stained cell populations for each cell line were calculated from the flow cytometry data. Then a correlation coefficient between the sum of α5 and alpha-V MFIs and the bispecific ITGA5B1xAV was calculated.
The sum of integrin α5 and integrin alpha-V binding (MFI) was highly correlated with bispecific binding (correlation.9187; FIG. 3B).

binding result: binds
B1: ITGA5B1xAV bispecific, tetravalent antibody construct (bispecific antibody, human IgG2, kappa)
heavy: QVQLQQSGGELAKPGASVKVSCKASGYTFSSFWMHWVRQAPGQGLEWIGYINPRSGYTEYNEIFRDKATMTTDTSTSTAYMELSSLRSEDTAVYYCASFLGRGAMDYWGQGTTVTVSSASTKGPSVFPLAPCSRSTSESTAALGCLVKDYFPEPVTVSWNSGALTSGVHTFPAVLQSSGLYSLSSVVTVPSSNFGTQTYTCNVDHKPSNTKVDKTVERKCCVECPPCPAPPVAGPSVFLFPPKPKDTLMISRTPEVTCVVVDVSHEDPEVQFNWYVDGVEVHNAKTKPREEQFNSTFRVVSVLTVVHQDWLNGKEYKCKVSNKGLPAPIEKTISKTKGQPREPQVYTLPPSREEMTKNQVSLTCLVKGFYPSDIAVEWESNGQPENNYKTTPPMLDSDGSFFLYSKLTVDKSRWQQGNVFSCSVMHEALHNHYTQKSLSLSPGKGGGGSGGGGSQVQLKESGPGLVAPSQSLSITCTISGFSLTDYGVHWVRQPPGKGLEWLVVIWSDGSSTYNSALKSRMTIRKDNSKSQVFLIMNSLQTDDSAMYYCARHGTYYGMTTTGDALDYWGQGTSVTVSSGGGGSGGGGSGGGGSQIVLTQSPAIMSASLGERVTMTCTASSSVSSNYLHWYQQKPGSAPNLWIYSTSNLASGVPARFSGSGSGTSYSLTISSMEAEDAATYYCHQYLRSPPTFGGGTKLEIK
light: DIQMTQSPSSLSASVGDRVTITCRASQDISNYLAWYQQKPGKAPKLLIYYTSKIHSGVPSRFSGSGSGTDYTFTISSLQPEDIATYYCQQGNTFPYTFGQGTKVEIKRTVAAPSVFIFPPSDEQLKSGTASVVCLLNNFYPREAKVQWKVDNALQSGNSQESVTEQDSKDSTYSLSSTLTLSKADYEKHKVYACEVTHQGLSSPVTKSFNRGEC
notes: also called ITGa5β1xaV; bispecific ITGA5V
